Biological target: L1 (DV1-GV4) (human)
Experiment: DELFIA affinity ranking, signal with 100 nM biotinylated L1

Chain of L1 (DV1-GV4) (human) (chain, as listed by the source, chain 1 of 2): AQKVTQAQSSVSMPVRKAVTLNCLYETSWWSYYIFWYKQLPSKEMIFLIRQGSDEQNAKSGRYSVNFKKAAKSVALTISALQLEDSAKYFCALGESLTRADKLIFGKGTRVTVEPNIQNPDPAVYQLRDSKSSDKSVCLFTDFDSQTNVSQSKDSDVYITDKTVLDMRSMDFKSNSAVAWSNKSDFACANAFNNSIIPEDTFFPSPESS
Chain of L1 (DV1-GV4) (human) (chain, as listed by the source, chain 2 of 2): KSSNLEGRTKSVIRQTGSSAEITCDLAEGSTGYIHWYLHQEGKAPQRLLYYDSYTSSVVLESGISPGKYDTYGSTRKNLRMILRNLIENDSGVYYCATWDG

Row | Binder | 100 nM L1
1 | 1139_P01_E04 scFv (scFv) scFv: QVQLQQSGPGLVKPSQTLSLTCAISGDSVSSNSAAWNWIRQSPSRGLEWLGRTYYRSKWYNDYAVSVRSRITINPDTSKNQFSLQLNSVTPEDTAVYYCARSWNDAFDIWGQGTTVTVSSGGGGSGGGGSGGGASDIVMTQSPSTLSASIGDRVTITCRAGQSISTWLAWYQQKPGKAPKLLIYDASSLESGVPLRFSGSGSGTDFTLTISSLQPEDFATYYCQQSYSTPLTFGGGTKVEIK | 23800
2 | 1245_P01_E07 scFv (scFv) scFv: QVQLVESGGGLVKPGGSLRLSCAASGFTFSDYYMSWIRQAPGKGLEWVSYISSSGSTIYYADSVKGRFTISRDNAKNSLYLQMNSLRAEDTAVYYCARVDYADAFDIWGQGTLVTVSSGGGGSGGGGSGGGASDIQMTQSPSSLSASVGDRVTIACRAGQSIGTYLNWYQQKPGKAPKLLIYVASSLQSGVPSRFSGSGSGTEFTLTISSLQPEDFATYYCQQSYSTLLTFGRGTKVEIK | 163000
3 | 1245_P02_F07 scFv (scFv) scFv: QVQLQQSGPGLVKPSQTLSLTCVISGDSVSSNSAAWNWIRQSPSRGLEWLGRTYYRSKWYNDYAVSVKSRITINPDTSKNQFSLQLNSVTPEDTAVYYCARDYYYSMDVWGQGTMVTVSSGGGGSGGGGSGGGASDIQMTQSPSTLSASVGDRVTITCRASQSISSWLAWYQQKPGKAPKLLIYDASSLESGVPLRFSGSGSGTEFTLTISSLQPDDFATYYCQQSHSHPPTFGPGTKVDIK | 10400
4 | 1252_P01_C08 scFv (scFv) scFv: EVQLLESGGGLVQPGRSLRLSCAASGFTVSSNYMSWVRQAPGKGLEWVSVIYSGGSTYYADSVKGRFTISRDNSKNTLYLQMNSLRAEDTAVYYCASPIELGAFDIWGQGTLVTVSSGGGGSGGGGSGGGASSYELTQPPSVSVAPGKTARITCGGNNIGSQSVHWYQQKPGQAPMLVIYYDSDRPSGIPERFSGSNSGNTATLTISRVEAGDEADYYCQVWDSSSDHVVFGGGTKLTVL | 1980
5 | 1245_P01_G09 scFv (scFv) scFv: QVQLQQSGPGLVKPSQTLSLTCAISGDSVSSNSAAWNWIRQSPSRGLEWLGRTYYGSKWYNEYALSVKSRIIINPDTSKNQFSLQLNSVTPEDTAVYYCARDYYYSMDVWGQGTLVTVSSGGGGSGGGGSGGGASDIVMTQSPSTLSASIGDRVTITCRAGQSISTWLAWYQQKPGKAPKLLIYDASSLESGVPLRFSGSGSGTEFTLAISSLQPDDFATYYCQQSYSTPVTFGQGTKVEIK | 18400
6 | 1251_P02_G10 scFv (scFv) scFv: EVQLVESGGGLVQPGGSLRLSCAASGFTFSDYYMSWIRQAPGKGLEWVSYISSSGSTIYYADSVKGRFTISRDNAKNSLYLQMNSLRAEDTAVYYCARHSWNDAFDIWGRGTLVTVSSGGGGSGGGGSGGGASDIQMTQSPSSLSASVGDRVTITCRASQSISSHLNWYQQKPGKAPKLLIYAASSLQSGVPSRFSASGSGTDFTLTISSLQPEDFATYYCQQSYSTLLTFGGGTKVEIK | 17100
7 | 1141_P01_E01 scFv (scFv) scFv: QVQLVQSGAEVKKPGESLKISCKGSGYSFTSYWIGWVRQMPGKGLEWMGIIYPGDSDTRYSPSFQGQVTISADKSISTAYLQWSSLKASDTAMYYCARHQVDTRTADYWGQGTLVTVSSGGGGSGGGGSGGGASQSALTQPASVSGSPGQSVTISCTGTRSDVGGYNYVSWYQHHPGKAPKLMIYEVSNRPSGVSNRFSGSKSGNTASLTISGLQAEDEADYYCSSYTSTSTLVFGGGTKLTVL | 137000
8 | 1251_P02_C05 scFv (scFv) scFv: EVQLLESGGGLVQPGGSLRLSCAASGFTFSSYAMSWVRQAPGKGLEWVSAISGGGGTTYSSDSVKGRFTISRDNSKNTLYLQMNSLRAEDTAVYYCARDSGVAFDIWGQGTLVTVSSGGGGSGGGGSGGGASDIQMTQSPSFLSASVGDRVTITCRASQNIRTWLAWYQQKPGRAPKLLIYDASSLESGVPSRFSGSGSGTDFTLTISSLQPEDFATYYCQQFKRYPPTFGLGTKVEIK | 65300
9 | 1245_P02_G04 scFv (scFv) scFv: QVQLQQSGPGLVKPSQTLSLTCAISGDSVSSKSAAWNWIRQSPSRGLEWLGRTYYRSKWSTDYAASVKSRITINPDTSKNQLSLQLNSVTPEDTAVYYCARTWSGYVDVWGQGTLVTVSSGGGGSGGGGSGGGASDIQMTQSPPALSASVGDRVTITCRASQDINDWLAWYQHKPGKAPKLLIYDASSLESGVPSRFSGSGSGTEFTLTISSLQPDDFATYYCQQSYSTPQVTFGQGTRLEIK | 5900

Source: patent EP4218932A2
